Source: patent publication US20220372154A1 (APEXIGEN, published 2022)

Experiments:
[1] = target: T1, human TNFR2 expressed on cells (human, UniProt P20333 23-461); test: cell-based or functional assay
T1 sequence (looked up): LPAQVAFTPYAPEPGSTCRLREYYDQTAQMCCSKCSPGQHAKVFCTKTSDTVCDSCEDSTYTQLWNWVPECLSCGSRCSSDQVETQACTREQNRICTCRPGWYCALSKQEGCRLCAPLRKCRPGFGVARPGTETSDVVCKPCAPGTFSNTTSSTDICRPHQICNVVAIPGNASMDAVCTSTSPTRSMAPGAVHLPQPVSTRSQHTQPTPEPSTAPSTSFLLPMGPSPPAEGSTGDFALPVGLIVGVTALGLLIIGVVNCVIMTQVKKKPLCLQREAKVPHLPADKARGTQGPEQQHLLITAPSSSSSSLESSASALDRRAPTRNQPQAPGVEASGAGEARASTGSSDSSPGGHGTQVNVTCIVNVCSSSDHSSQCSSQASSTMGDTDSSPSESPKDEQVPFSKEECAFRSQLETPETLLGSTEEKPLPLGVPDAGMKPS

[2] = target: T2, herpesvirus entry mediator (HVEM) (UniProt Q92956 39-202, limits assumed); test: ELISA on coated HVEM, OD 650 nm
T2 sequence (looked up): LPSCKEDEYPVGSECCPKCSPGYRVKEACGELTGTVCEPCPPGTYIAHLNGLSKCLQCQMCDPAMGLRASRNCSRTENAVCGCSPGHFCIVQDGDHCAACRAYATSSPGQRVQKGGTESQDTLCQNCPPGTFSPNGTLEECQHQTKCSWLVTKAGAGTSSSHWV
Experimental: (§1) To test binding to TNFR family members, target proteins were coated on ELISA plates at 1 μg/mL at 4° C. overnight. Plates were washed, blocked, and antibodies were added at indicated concentrations for 1 hour at RT. Positive control antibodies for each protein were used at ˜1 ug/mL. Antibodies were washed and detected with anti-human IgG HRP for 1 hour. Assay was developed using TMB substrate for 10 minutes. For cell-binding, human CD4+ T cells purified from buffy coats were cultured in flat-bottom plates with anti-CD3/CD28 for 24 hours. Cells were harvested and stained for viability, CD4, CD25 and FOXP3. Test antibody staining was detected using anti-human IgG APC. Binding titration of test antibodies was evaluated on CD4+CD25hiFOXP3+ regulatory T cells and plotted as percent binding.

[3] = target: T3, human TNFR1-His tagged protein (human, UniProt P19438 30-211, limits assumed); test: ELISA on coated TNFR1, OD 450 nm
T3 construct: also called soluble human TNFR1; not shown: His tag
T3 sequence (looked up): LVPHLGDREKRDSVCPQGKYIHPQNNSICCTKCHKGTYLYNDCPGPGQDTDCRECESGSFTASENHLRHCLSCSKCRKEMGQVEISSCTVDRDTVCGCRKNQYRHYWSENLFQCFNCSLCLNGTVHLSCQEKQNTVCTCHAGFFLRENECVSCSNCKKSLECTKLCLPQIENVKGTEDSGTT
Experimental: as §1

[4] = target: T1, human TNFR2 expressed on cells; test: cell binding on TNFR2-overexpressing (OE) cells
[5] = target: T1, human TNFR2 expressed on cells; test: flow cytometry on cells expressing human TNFR2, MFI median
[6] = target: T1, human TNFR2 expressed on cells; test: Primary Cell Affinity; binding titration on activated human Tregs, flow cytometry
Experimental: as §1

ADCC EC50 (reporter line) [1]: 1140 pM
ADCP EC50 [1]: 710 pM
binding result [2]: no binding (tested: about 67 nM)
binding result [3]: no binding (tested: about 67 nM)
Kd [4]: 120 pM
EC50 (read off the curve) [5]: ~300 pM
Kd [6]: 47 pM
B1: humanized antibody h600-25-71 (antibody, V domains shown)
VH: EVQLVESGGGLVQPGGSLRLSCAASGIDLSSYAMGWVRQAPGKGLEWVGDISTSGNAYYATWVKGRFTISRDNSKNTLYLQMNSLRAEDTAVYYCARADYGGETYAFDPWGQGTLVTVSS
VL: DIQMTQSPSSLSASVGDRVTITCQASQSISSYLNWYQQKPGKAPKLLIYSASTLASGVPSRFSGSGSGTDFTLTISSLQPEDFATYYCQQGYSDSNIDNVFGGGTKVEIK
notes: also called Ab 25-71; clone 25-71
